Earlier results in PMC5218898.

What was measured:
EnvZ (Escherichia coli) = EnvZ (Escherichia coli) (UniProt P0AEJ4)
RstB (Escherichia coli) = RstB (Escherichia coli) (UniProt P18392)

Substance	Kd (EnvZ (Escherichia coli)) [µM]	Kd (RstB (Escherichia coli)) [µM]
EnvZ (from UniProt P0AEJ4)	0.3	–
RstB (from UniProt P18392)	–	0.3
